Key:
146G7 [1] = biological target: T1, 146G7 (influenza A H1N1 A/Brisbane/59/2007); assay: ELISA, coated CR6261, P. pastoris medium
189E10 [2] = biological target: T2, 189E10 (influenza A H1N1 A/Brisbane/59/2007); assay: ELISA, coated CR6261, P. pastoris medium
262B9 [3] = biological target: T3, 262B9 (influenza A H1N1 A/Brisbane/59/2007); assay: ELISA, coated CR6261, P. pastoris medium
146G7 [4] = biological target: T1, 146G7; assay: ratio against parental SEQ ID NO: 6
189E10 [5] = biological target: T2, 189E10; assay: ratio against parental SEQ ID NO: 6
262B9 [6] = biological target: T3, 262B9; assay: ratio against parental SEQ ID NO: 6
146G7 [7] = biological target: T1, 146G7; assay: ELISA signal over HTRF expression signal
189E10 [8] = biological target: T2, 189E10; assay: ELISA signal over HTRF expression signal
262B9 [9] = biological target: T3, 262B9; assay: ELISA signal over HTRF expression signal
s127H1-t2-cl18long = s127H1-t2-cl18long (influenza A virus H1N1 …, UniProt A8C8J4 18-529)

Binder	CR6261 binding signal (146G7 [1])	CR6261 binding signal (189E10 [2])	CR6261 binding signal (262B9 [3])	fold increase of ratio over parental H1 mini-HA (146G7 [4])	fold increase of ratio over parental H1 mini-HA (189E10 [5])	fold increase of ratio over parental H1 mini-HA (262B9 [6])	ratio of CR6261 binding signal to HTRF signal (146G7 [7])	ratio of CR6261 binding signal to HTRF signal (189E10 [8])	ratio of CR6261 binding signal to HTRF signal (262B9 [9])	EC50 (s127H1-t2-cl18long)
CR6261 (antibody, V domains shown) VH: EVQLVESGAEVKKPGSSVKVSCKASGGPFRSYAISWVRQAPGQGPEWMGGIIPIFGTTKYAPKFQGRVTITADDFAGTVYMELSSLRSEDTAMYYCAKHMGYQVRETMDVWGKGTTVTVSS VL: QSVLTQPPSVSAAPGQKVTISCSGSSSNIGNDYVSWYQQLPGTAPKLLIYDNNKRPSGIPDRFSGSKSGTSATLGITGLQTGDEANYYCATWDRRPTAYVVFGGGTKLTVLG [CR6261, listing 1 of 2 here]	534000	189000	94700	1.71	1.74	1.66	10.2	10.3	9.89	
CR6261 (antibody, V domains shown) VH: EVQLVESGAEVKKPGSSVKVSCKASGGPFRSYAISWVRQAPGQGPEWMGGIIPIFGTTKYAPKFQGRVTITADDFAGTVYMELSSLRSEDTAMYYCAKHMGYQVRETMDVWGKGTTVTVSS VL: QSVLTQPPSVSAAPGQKVTISCSGSSSNIGNDYVSWYQQLPGTAPKLLIYDNNKRPSGIPDRFSGSKSGTSATLGITGLQTGDEANYYCATWDRRPTAYVVFGGGTKLTVLG [CR6261, listing 2 of 2 here]										0.139 µg/mL
